Experiment: protease stability score; higher = more stable; yeast display proteolysis, trypsin and chymotrypsin;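 also: relative to predicted unfolded state with 0 unfolded-like and 1 meaning tenfold more protease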

Sequence	protease stability score
DEHEEQVRRFLHHLWRSVQTGDEHELANNFDPNTRVDVGDKHLHGMERFVYLIFEFARHWRIRHTTLHFIVRIGEFIEVDHILDGEIDGRRREVKMTIIIFKVDGRWIIRSMEVK	1.82
DEDKQWIEEFIELHLRELETGDEQRVDENLDPNVKLRINGKEVHGRERISHLLKELLRKVKNLKVELHDIRVQGDFLEIEGTLRIGDKELDLYVIAHKVNGKWIVKERRIH	1.23
DETETAKRFALEMLLHTLRTGDEEDKLRMLDPNARLVIGDKEFWGWKEFKKFVEKESRELRIQDSRIQHVELQGDKLHLDSVIIGQVNGVTVELKVEFVMNKIDGKWRVEEIIVR	1.34
DKETKDSEKMSRMYFEYLLTGDFEKLLEMADPDVRFEFNGKEYIGMHETIEILERIWKDLGIKHSELKKVELQGEKAIIDGRIKYGDKEVNVKIILLVWNGKMREQRIHYQ	1.1
HEDRKLEREIAEEMVKLWLTGDETRFEQLADPHVRVEDGDKESHGRENFSKLVRHRKTEFGIDHIEVEDIRVYDGRVEIRVRMEIGEKETHVRIIQVVINGRLKSVHLHFR	0.771
SELEELSKEALERHNKDLRTGDWEELWRLLDPNVKLIVNGRHVHGREDATKFLLDWVRQVDHIRSIHIEDYKFQGNKLILHVRYQMDVDGKRDSREMTIYASKVDGRWIVESIEFR	1.64
DHEDELMERLARLFVHALQTGDEDLLRRYADPNTLINVNGKNLHGMEEESRFWKEIRIEHTEVERIHVQGNKSTVFVRVFFRIGDKHVHEHRILRLEFVDGRLRSVELERH	1.69
DEEKESAERWLHIFLHSMDTGDEDKIRKLLDPNVLNDVGDKVLIGRELAFKWFHHLRFRKVHLRDFRIINGRIEVDIDVRGEINGKEDHFRLEVDLRKINGRWVLHEIRID	2.81
DERFELFDWVVRLILHAHHTGDERIIHELADPNVRYIINGVTVHGRELMYRLAHEHLREIWVHHVQVRHFDVVGDFFRVEMEVVGLVNGVHYNEHRRLHLYVVNGRLKSSRIEIE	1.03
DEERKDTKEAIERVRDTWRTGDEQDIFNNVDPNTRMIVGDKHHHGMEDVARLAFEWRVHDFRFHEVHSSEDHVILDGRVDGEINGRRINTKMILILLKIDGRWHIESIQYI	0.805
REDERISQIAIEIVEHLIRTGDERVESELADPHMKLRINGVEIHGRERVHDWIHRFVTEFGIDRVEARVHDSHVVNGRIYNDTESHINGKNVKMRWIAIKYNGRWIQTMITFE	1.3
NREDRELEDFIWEILEAWRTGDEDEHHRLLDPHTRHHFNGRVSHGREMVEYIFKQFDHIHRFEYRDFSVQGNKAHVFAQVDVRIGDKIITFDVTIEVEKVNGRWVLRELSIH	1.31
DEITETAERLLRLWVHNFETGNWKKMVDLIDPNARLDVNGRHIHGWEEIAKHLTDELREWRIREIRIRDVKFIDGVNHTHIESDIEYDGRRDRTEMRIIIVVVNGRIKSVKFEIL	1.2
SEDERLALKMAEVIMHHLSTGDERILESFFDPNVQFIYGDKTNHGMEETLKFWEHIRIEVKSFTWKHITHVDGRLEMHTRSRELFIYGEFKEDRETRVHIIIDKVDGKWNHHSVRFR	0.06
DHEKENIERSSRIMLRLYETGDEDELRKLADPHARSEVGEFEYHGREEVFRWLNLLIRELGAKHITIRDIKYVGNKLTLHMISHVDGRELNLEIWAIKIDGQWLLTTVHHK	0.69
DELDRLMRHISKLWVELLLTGNEEITSHLADPDARLHINGRDTIGREEYIRMYHEWLNEIRIRDFHIHSIKTQGNKANTDSELDLEVNGKRLDLRITIIILNINGRMKSVKVEVI	0.99
SEDDRDSKEAKHLLHELIRTGDEDELVKLLDPNMIIIVGDKEYIGWEQAVRLLRELNRRFDHVELRFRDIEIQGEWVDTDIELIYRFDGRETRIDTRFIAYKVDGRWFNHHIEIK	0.582
DEKEEHSKELVRLILRLILTGDEEILEDLMDPNVRANIDGREVHGWHEFVRILEKFLKEWRIHTTSLKRIRIIGDKAEVDLHEVGIVNGKKLEQDFHIHIEFVNGRLKEVHIEIR	1.69
DEEEEINKKIVEDLFRALITGDEERQLKNMDPNTKIRTNVNGQDYIFHGRDLWVTLWNRFKNLRVEIESVHRQGNKIHFDTRLLFNGRIFQYHIVVISVNGQTKELKEHDE	1.24
SEEEKWAELALEETLRHLKTGDPRVLLELADPNVKLDVNGREYHGREVFLNFIEEFREKFKNITIEVKDRDVVNGRLITHLRLIVNGKEERVHMRSHKVDGQWVLDSVKIE	1.9
SDKEEEAHRLLELLIHWYRTGDFETWRQLMDPHVRNVVDVNGRELHHHGREEVTDSLRFFWEHLGIKHVHFRHVEVQGDKIKLHGQQRVDGQEHQSDFIFIIVDGRVKFIFIHLR	0.649
DDEERANRELLELLIHSYRTGDWKLWHELVDPHVRTSLHQGEFEMKSIGRHYVRDIMTYMGVDHVELRHLEIQGDKLIMHLELDVNGRRLHVILFLSKINGVWILREEEIRFI	1.3
DEMERIIETALELLIKSERTGDEDLYREFLDPHTIIDINGKIIHGREEFVRWFTEIRVHELKLRDMEIQGEFAIIYGEVDGRIGDKHFHTSVRLIVYKIDGRWIMRWNELN	1.42
SEEDELMEEWRRLFIHSFLTGNEDELHRLIDPNARFIINGVNLHGWKALETKLRELGAKHIEVRERHEHRQGNKLELHVHIIIHQGDKDLREDVRIENEKVNGRWVVRTIEEK	1.07
TEEQTHLIRLIEQFVRDEITGNWKSVLKLLDPEVKVILKINGREIHLHGREEITRWVHEWVRHIRVFIEIHHSRAFDGVVEMDTRIIIDIDGVHLSQETRINIYVVDGVLKSMEIHVK	1.65

Sequence	protease stability score
DEDKEEAVRIIHEWSHAVFTGDFERELRLADPNVRLIINGRDFHGWHSLRELLNHMRLKTHHTDVKRSRSQGDFVEIDGLFNFTIHFNGRDLNVITDVKVVINKIDGRWKIESVHYE	1.18
GEEDEEFSKLMDETVKSLQTGDETHLKKLLDPNVILHVGDKEFHGRERAIDWYRHLRIHDMTIHHWEIQGDKAHVDGKLHVEVDGQHYDAKLHIVLEKINGQWYITSIHYK	2.06
SEEEENARRAAEHHEHVLKTGDEDHMTRMFDPNVRVRQGDKEIHGREEFRRLFHELVRRYPNLKFELEDVDVFNGKVVVHMIFWVDGRTIEIHWFIDKFDGQWVVEEVEFR	1.19
DEDEEHARHMLEIFMHAVITGDEDTLKELVDPNVKLVVNGREFHGWEEYLKVHRHWRMRDAHIKHVEVQGEKVIVDTRLHGRVDGKLTDFRTEIIVRKINGRWHLESERVH	2.13
SEWEEISRKISRDWTEWLETGDFETFMNYVDPNARYRQGDKDLHGMETLHRYIYHMRMHIRIRRIDHQGDYILIDGELELRQGDKTHRFESIIYIIVIDGKLRRFEIRER	0.733
NKHERDAEHFIKEWWHDVHTGDEDHYLKRLDPNMRVDINGQEFHGREKVLTFFHEHSRHLGIDHLIIDHVRIRVQGNKIEEEVEGENVFNGKRLEVRFHFVARKIDGRWELEHLTVRIS	0.724
DEQETHNNNILERLIRILHTGDEHIYEHLFDPHARLHIGDKRFHGREELSRWLRRLGVRWEHFIERDVEVQGEKLRIEGERTVHIDGVRHHHRTEIIIIVIDGKIKSYEERHV	0.572
DEESEKVEHFLEELFRAMETGDEDQFRKLMDPNVRASYGDKEVHGRNDILHWIREYRERVKNLKLEVHRVRVRIYNGRVEIEMDTILRINGKEHKVTLTFDVTKVNGRWFIEHVEVEVR	1.37
DEKDEHMENLMREFMHSTLTGDEELLERMADPHVKVIVNGKELIGRESWRKWLEELEKRFKHAKFIWLLHRVDVQGEKANSDGVRRINFDGVNINLKTHIFIHVVNGKLKEIEIHDK	1.33
SEEERETRKIFEDLLKTMETGDWRHLHRLIDPNARLIVNGQEFHGREDLIRLLEQLRIRSMRITDVRNQGNKSHVDGTVEGEWNGRTDNNRTEVHLVVVDGVLKHVEFHLH	1.47
DEDEERAKKLAEDTLHSWRTGNEEHMIKLADPNVRVEWNGKDFVGREEFKRSVHKMLRDLGVDNIEVRLDHIEVDEDHAIVYGEVIYNGRISQIEWVFRKVNGRWYLHRMHIRDR	1.54
DEDERDTREAIELFRESIRTGDERILEEMVDPNVRLEFNGKHHHGMEHLVKWFSFLAKHWRVDIDLHHLEVQGDKVHSDERIDLVQGDKIVHTEVKIIFRKINGRWLMHKIRIN	1.4
SEEEELRHELAHRWLRAFETGNFHMLLELFDPNTYFEVGDKKFHGREEVSKLLEEIWEHIRFEHVKVREVRLQGDKLHIDGETDGRVNGRDEKRKVEFEVTVINGVIHSVIIRIK	2.46
DEIHKDAKEFTKRFIDSLHTGDWKELLEMFDPHTRIVVGDKEFIGMDEILRFERELGIEKVDYHLKHVEIRVQGEKADIHITGEIRFNGQTVDRELNIHARKIDGRWKVDEVNLDRR	1.88
TEEDRETEKFLRILQEVHRTGDWRRFDEFLDPNVRIHIGDKEYHGREEFTRFFKEMGIDHHEVKHYRLVDGQLDLDVTERFNGVTVKTKLITHKFDGRWLITEIRVK	1.19
DDIKHEILRLMQLAFHYWETGDWEHFHHLADPHVRIDLDFNGKRLDLHGRDELQRVLEEELKRIDHFELHVTSLTDQGNKAELHGHRHIHQGDKRIDVRVINILIVVDGRIKTYSVHIR	0.909
SEHEEMEQDAREIMERVFHTGDETTMRKLADPHVKFHIGDKLHVGRELFDNFVRYVLEKFKNIRVETEEVRDVNGVVIQDLDENYNGQRYKVRWVMVKINGKWTIERVEIR	0.599
TEDRESILKLITMEQRNLRTGDEERWHELADPDYRLEFENREIHGREHAIRFMIETTLKLGVDHVELIINDVKWQGDKLHIDGHLRLEIGDKIIEERVIIINLKVNGRWLLRRKHVG	1.03
RDKERMVHFIANYVLHSVLTGDWKMLFDLLDPSMRLEIGEKDSHGRENAEKLLHEFLEKLGADHTDIRRSHVTFQGDKIIIIINTEIDINGVRHEIWVRVIILKIDGKWVLESIRIEIR	1.54
DKRDEKMERFLRLMIEFYTTGNEDEFRKLADPDVRTIVGDKHAHGWEESEKVFRILIDHMRIRRIHIEHITVQGNWAHSITRLDGEVNGVRVHVRTEVVIIVYNGRVETIDLRWE	1.28
DEDKEIAEKVAREVFHNFMTGDEDRHLELADPHTRLRVGEWENHGRDQVKRMFERQRRRFDHLERIEIKDVRIYDGVVHLHVEVHGVINGVSTTLEMRVYFVVVNGQLKRSSIHIH	0.373
SEEEKWTEIAFTLWREVVETGDEHDVQEMADPNARYKQGDKEYHGREHLLEFMVKFFRHARVDDDDHKHVRTINGRVELQMRSEVTINGKLLITDVELIIVKVNGRWVVESLILG	1.43
DEEDELSHQIAEEFFRFFSTGNEEKSKELLDPDVRVESEDHHDHGMHKLLHLWNRIDHIHMRSRHVEFDRVGDFLEIRMRGHVILDVNGVRTEIDTELLLVVTKFDGRWLMHEVKFIIR	0.696
DENTENEHNIAEVIIEAFETGDWEMLWRMADPNTLLEIIIGDKRMEIHGMHIFVKYWVEFQDRFKNVRISLKSYHVYDGRIELHMNLNFNGRRVEEEVLIYFINGRVKRIHIRHH	2.8
DEEREHSEEALLLLLHLIMTGDEEELIKNVDPNARITQGDKEFHGREVVIKHLFELMHRFGVKHFTVDHVEIFNGRLFIRFTLHFNGRKIDEHLILVKINGRWLLKSMEIK	2.21

From the NTF2 design screens of Basanta et al. (2020)
